The values below come from patent US20150291521, “PYRROL-1-YL BENZOIC ACID DERIVATIVES USEFUL AS MYC INHIBITORS” (DANA-FARBER CANCER INSTITUTE, INC., published 2015).

One data set concerns the target Max/Max homodimer (Homo sapiens, UniProt P61244 P61244:1-160). Kind of data set: EMSA; Max/Max/Ebox complex; disrupted by compound 101, not 79. The settings on record: tags: His6-Max; chain copies: 2 (stated); label: 5' biotin-triethyleneglycol; self-complementary.
The next data set has as its target c-Myc/Max heterodimer (Homo sapiens, UniProt P01106-1;P61244 P01106-1:1-439,P61244:1-160). Kind of data set: EMSA; complex formed with purified proteins; inhibited dose-dependently by compound 63. The settings on record: tags: c-Myc full-length, His6 removed by thrombin (assay 1) or His6-c-Myc (reciprocal assay), label: 5' biotin-triethyleneglycol, self-complementary. (A gel shift assay detects complexes by their altered migration in electrophoresis.)

Chain of Max/Max homodimer (P61244 whole entry, one chain of several): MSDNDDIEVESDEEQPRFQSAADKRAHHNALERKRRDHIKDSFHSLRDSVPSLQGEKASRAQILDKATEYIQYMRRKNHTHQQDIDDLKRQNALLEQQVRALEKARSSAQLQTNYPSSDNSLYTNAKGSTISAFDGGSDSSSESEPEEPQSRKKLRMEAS
Chain of c-Myc/Max heterodimer (P01106 16-454, chain 1 of 2): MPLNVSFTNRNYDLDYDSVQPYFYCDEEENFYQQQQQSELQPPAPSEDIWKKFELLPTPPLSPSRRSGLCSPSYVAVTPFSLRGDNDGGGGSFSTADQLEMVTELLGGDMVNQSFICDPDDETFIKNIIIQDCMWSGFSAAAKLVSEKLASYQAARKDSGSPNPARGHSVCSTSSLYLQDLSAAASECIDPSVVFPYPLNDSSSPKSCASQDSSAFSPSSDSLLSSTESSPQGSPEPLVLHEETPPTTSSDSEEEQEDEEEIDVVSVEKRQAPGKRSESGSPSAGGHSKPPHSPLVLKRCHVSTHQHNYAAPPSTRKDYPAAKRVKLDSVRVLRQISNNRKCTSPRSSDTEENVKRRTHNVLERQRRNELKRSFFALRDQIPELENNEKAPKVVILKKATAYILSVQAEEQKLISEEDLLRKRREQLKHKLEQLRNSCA
Chain of c-Myc/Max heterodimer (P61244 whole entry, chain 2 of 2): as the sequence (P61244 whole entry, one chain of several) above

B1: Ebox DNA (dsDNA)
DNA 1: GGAAGCAGACCACGTGGTCTGCTTCC
DNA 2: GGAAGCAGACCACGTGGTCTGCTTCC
On to B1, for which the binding result with Max/Max homodimer and with c-Myc/Max heterodimer was “binds” throughout.
